Data taken from US20230242654A1, “REAGENTS FOR EXPANDING CELLS EXPRESSING RECOMBINANT RECEPTORS” (Juno Therapeutics, Inc., priority 2017, published 2023).

Tested on: anti-BCMA CARs
Test: BCMA-Fc fusion protein binding to CAR T cells by flow cytometry
Details: versus T cells expressing CARs that do not bind BCMA
Protocol: The clone encoding the recombinant human BCMA-Fc fusion construct with the N-terminal CD33 leader sequence (SEQ ID NO: 30) was inserted into an expression vector and expressed in HEK 293 cells. Supernatant from the transiently transfected HEK cells was harvested after 5 days and the BCMA-FC fusion protein was purified by protein A affinity chromatography and size exclusion chromatography (SEC). The resulting BCMA-Fc fusion protein was determined to have a purity of greater than 95% as assessed by gel permeation chromatography.

B1: BCMA-Fc fusion protein: extracellular domain of human BCMA and a human IgG1 Fc connected with a linker (SEQ ID NO: 35) (protein)
chain: MLQMAGQCSQNEYFDSLLHACIPCQLRCSSNTPPLTCQRYCNASVTNSVKGTNAGGGGSPKSSDKTHTCPPCPAPEAEGAPSVFLFPPKPKDTLMISRTPEVTCVVVDVSHEDPEVKFNWYVDGVEVHNAKTKPREEQYNSTYRVVSVLTVLHQDWLNGKEYKCKVSNKALPSSIEKTISKAKGQPREPQVYTLPPSRDELTKNQVSLTCLVKGFYPSDIAVEWESNGQPENNYKTTPPVLDSDGSFFLYSKLTVDKSRWQQGNVFSCSVMHEALHNHYTQKSLSLSPGK
modifications: BCMA-Fc fusion polypeptide
With B1 the “binding of BCMA-Fc to CAR expressing T cells” value was “specifically bound to anti-BCMA CAR expressing T cells”.
